Test results as given in patent US20170218047A1, “NOVEL FUSION PARTNERS FOR THE PURPOSE OF CRYSTALLIZING G-PROTEIN COUPLED RECEPTORS” (THE SCRIPS RESEARCH INSTITUTE, priority 2011, published 2017).

What was measured:
[1] = Fluorescence (CPM) thermostability assay of β2AR constructs; assay type: physicochemical; conditions: 100 μM timolol; for thermostability: more stable than β2AR-T4L: increase relative to β2AR-T4L; for thermostability: less stable relative to β2AR-T4L: decrease relative to β2AR-T4L
Experimental: N-[4-(7-diethylamino-4-methyl-3-coumarinyl)phenyl]maleimide (CPM) dye was purchased from Invitrogen and dissolved in DMSO (Sigma) at 4 mg/mL as the stock solution for future use. The stock solution was kept at −80° C. and was diluted 1:40 in dye dilution solution (10 mM buffer, 500 mM NaCl, 10% glycerol, 0.025% DDM and 0.005% CHS) before use. The thermal denaturation assay was performed with total volume of 200 μL sample in a quartz fluorometer cuvette (Starna Cells, Inc., Atascadero, Calif.). Receptor (4 μg) was diluted in the appropriate buffer solution to a final volume of 200 μL, 5 μL of the diluted dye was added to the protein solution and incubated for 30 min at 4° C. The mixed solution was transferred to the cuvette and the data were collected by a Cary Eclipse spectrofluorometer (Varian, USA) with a temperature ramping rate at 2° C./min. The excitation wavelength was 387 nm and the emission wavelength was 463 nm. All assays were performed over a temperature range starting from 20° C. and 95° C. The stability data were processed with GraphPad Prism program (GraphPad Prism, Graphpad Software, San Diego, Calif., USA). In order to determine the melting temperature (Tm), a Boltzmann sigmoidal equation was used to fit to the data.
The thermostability of the different β2AR constructs was then evaluated. Assays were carried out in the presence of 100 μM timolol to maintain receptor stability during heating. […] We thus selected β2AR-BRIL and β2AR rubredoxin for further crystallization studies.

[2] = Size exclusion chromatography (SEC) of purified S1P1-fusion partner proteins; assay type: physicochemical; conditions: presence or absence of ligand
Experimental: S1P1-fusion partner proteins (“S1P1 fusion receptors”) were purified from membranes by dodecyl-maltoside (DDM) extraction followed by immobilized metal affinity chromatography (IMAC) on Talon resin (Clontech) as detailed below. Frozen cellular membranes were thawed by adding room temperature lysis buffer to a total volume of 25 mL. The S1P1 receptor antagonist W146 was added to a final concentration of 125 μM. The mixture was allowed to incubate at room temperature for 1 hour to ensure complete saturation of the receptor with ligand followed by addition of iodoacetamide to a concentration of 1 mg/mL and an additional 1 hour incubation at 4° C. Receptor solubilization was initiated by addition of detergent and cholesteryl hemisuccinate (CHS) to achieve a final concentration of 0.5% DDM 0.1% CHS. The solubilization buffer consisted of the following mixture: 50 mM Hepes pH 7.5; 800 mM NaCl; 30 mM Imidazole; 0.1% DDM 0.02% CHS; 125 μM W146. […]
Eluted proteins were analyzed by size-exclusion chromatography (SEC) followed by SDS-PAGE. […] SEC fractions corresponding to S1P1-fusion partner proteins were evaluated separated by SDS-PAGE on a 10% gel and stained, confirming that each S1P1-fusion partner protein could be purified to near-homogeneity (data not shown).

Substance	thermostability: more stable than β2AR-T4L [1]	thermostability: less stable relative to β2AR-T4L [1]	further results
β2AR xylanase: β2-adrenergic receptor fused with xylanase, SEQ ID NO: 12	about 3 °C		
132AR-rubredoxin: β2-adrenergic receptor fused with rubredoxin, SEQ ID NO: 11	approximately 8 °C		
β2AR-C-term T4L: β2-adrenergic receptor fused with T4 lysozyme C-terminal fragment, SEQ ID NO: 9		~4 °C	
β2AR-flavodoxin: β2-adrenergic receptor fused with flavodoxin in place of T4L, SEQ ID NO: 13		about 9 °C	
S1P1-Bril: S1P1 receptor with cytochrome b562 RIL replacing part of ICL3, SEQ ID NO: 2			stability by SEC (in words) [2]: stable in the presence or absence of ligand
β2AR-BRIL: β2-adrenergic receptor with cytochrome b562 RIL replacing the third intracellular loop, SEQ ID NO: 10	approximately 8 °C		
